Source: publication PMC4124618

Test system: Cc1[nH]c2ccccc2c1CCN
Experiment: steady-state kinetics of halogenation
Assay type: biochemical, Lentzea aerocolonigenes
Settings: 21 °C

Row | Substance | Km [µM] | kcat [s⁻¹] | kcat/Km [M⁻¹ s⁻¹] | Km (variant 3-LSR) [µM] | kcat (variant 3-LSR) [s⁻¹] | kcat/Km (variant 3-LSR) [M⁻¹ s⁻¹]
1 | RebH (Lentzea aerocolonigenes) | 16.8 ± 3.8 | 0.06 ± 0.0057 | 3600 | – | – | –
2 | RebH (Lentzea aerocolonigenes; E423D/E461G/K145M/M71V/N166S/Q494R/S130L/S2P) | – | – | – | 40.2 ± 3.7 | 0.013 ± 0.00036 | 330
